In patent publication US20200181247A1 (published 2020):
Numbering of substitutions follows the chain as printed. Names and notes keep the numbering of the source. Blank lines part the entries; values can stand above or below the binder they belong to.

What was measured:
[1] = target: T1, cyclo(CGHHQKG) (SEQ ID NO: 12) conjugated to BSA (also: conjugated to BSA); experiment: single cycle Biacore analysis
T1 construct: Synthetic cyclic peptide (CPC Scientific) holding HHQK of A-beta; also called Cyclic Peptide; cyclopeptide
T1 peptide: cyclo(CGHHQKG)
Experimental: The fully humanized antibodies were prepared using Composite Human Antibody™ technology. The humanized variable region genes were cloned into vectors encoding a human IgG4 (S241P hinge variant) heavy chain constant domain and a human kappa light chain constant domain. Chimeric and humanized antibodies were transiently expressed in CHO cells and Protein A purified and tested.
Binding was determined using single cycle Biacore analysis. Antibodies were analysed in two separate experiments.

[2] = target: T1, cyclo(CGHHQKG) (SEQ ID NO: 12) …; experiment: SPR; immobilized antibody pre-exposed to cyclic peptide
[3] = target: T1, cyclo(CGHHQKG) (SEQ ID NO: 12) …; experiment: ProteOn biosensor; antibody amine-coupled to GLH chip, Cyclo-BSA dilutions 9 nM to 111 pM
Experimental: Cyclo-BSA 3-fold dilutions were used from 9 nM to 111 pM. Assay buffer was PBS-E+0.05% Tween+10 mg/ml BSA.

[4] = target: T2, commercially-prepared stable A-beta42 Oligomers (SynAging SAS) (human); experiment: ProteOn biosensor; antibody captured or amine-coupled on GLM chip, AbO dilutions 1 uM to 12.3 nM
T2 construct: Bought oligomer preparation; also called AbO (SynAging); SynAging AbO
T2 sequence (peptide, as listed by the source): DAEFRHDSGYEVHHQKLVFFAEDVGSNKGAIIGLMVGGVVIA
Experimental: AbO 3 fold-dilutions were used: 1 uM, 0.33 uM, 0.11 uM, 37 nM, 12.3 nM. Assay buffer was PBS-E+Tween 20+2 mg/ml BSA.

A-beta42 Monomer = target: T3, A-beta42 Monomer (human); experiment: SPR; purified antibody immobilized, A-beta preparation flowed over
T3 construct: Recombinant A-beta42 peptide (California Peptide), HFIP-treated, in DMSO then water, used at once; also called Ab42 Monomer; A-beta 1-42 monomer
T3 sequence (peptide, as listed by the source): as above

[5] = target: T4, A-beta42 Oligomer (synthetic, prepared in F12 medium) (human); experiment: as above
T4 construct: Non-covalent oligomer of recombinant A-beta42 (California Peptide), 100 µM in F12 medium, 24 h to 7 days at 4 °C; also called Ab42 Oligomer; A-beta 1-42 oligomers
T4 sequence (peptide, as listed by the source): as above

B1: 301-17 chimeric antibody (VH0 Vk0, human IgG4) (antibody, V domains shown)
VH: QVQLQQPGAELVKPGASVKMSCKASGYSFTSYWINWVKQRPGQGLEWIGDVHPGRGVSTYNAKFKSKATLTLDTSSSTAYMQLSSLTSEDSAVYYCSRSHGNTYWFFDVWGAGTTVTVSS
VL: DVLMTQTPLSLPVSLGDQASISCRSSQSIVHSNGNTYLEWYLQKPGQSPKLLIYKVSNRFSGVPDRFSGSGSGTDFTLKISRVEAEDLGVYYCFQGSHVPFTFGSGTKLEIK
notes: expressed in CHO cells; not expressly tied to the chimeric one; also called V0H0 and V0k0
Kd [1]: ~0.02 nM

B4: 301-11 (antibody, V domains shown)
VH: EVQLVESGGGLVKPGGSLKLSCAASGFTFSDYYMYWVRQTPEKRLEWVATISDGGSYTSYPDSVKGRFTISRDNAKNNLYLQMSSLRSEDTAMYYCARDYYGSSSYTSGFAYWGQGTLVTVSA
VL: DIVMSQSPSSLAVSTGEKVTMSCKSSQSLLNSRTRKNYLAWYQQKPGQSPKLLIYWASTRESGVPDRFTGSGSGTDFTLTISSVQAEDLAVYYCKQSYNLYTFGGGTKLEIK
notes: Mouse monoclonal from hybridoma, IgG3 / kappa, raised against cyclo(CGHHQKG)-KLH
binding response (RU) (A-beta42 Monomer): -14.1 RU
binding response (RU) [5]: -2.8 RU

B5: 301-17 (hybridoma-purified 301-17 IgG3) (antibody, V domains shown)
VH: QVQLQQPGAELVKPGASVKMSCKASGYSFTSYWINWVKQRPGQGLEWIGDVHPGRGVSTYNAKFKSKATLTLDTSSSTAYMQLSSLTSEDSAVYYCSRSHGNTYWFFDVWGAGTTVTVSSATTTAPS
VL: DVLMTQTPLSLPVSLGDQASISCRSSQSIVHSNGNTYLEWYLQKPGQSPKLLIYKVSNRFSGVPDRFSGSGSGTDFTLKISRVEAEDLGVYYCFQGSHVPFTFGSGTKLEIKRADA
notes: Mouse monoclonal from hybridoma, IgG3 / kappa; also called mu301-17
Kd [1]: 0.4 nM
binding response (RU) (A-beta42 Monomer): -27.1 RU
binding response (RU) [5]: 148 RU
Kd [4]: ~26.9 nM

The remaining lines, values ahead:

binding result [2]: binds
B2: Humanized antibody of 301-17 (VH2 Vk5), IgG4 isotype (S241P hinge mutation) (antibody, V domains shown)
VH: B1 VH with Q5V, P7S, L11V, V12K, K67R, S76I, Q82E, T87R, S91T, A112Q
VL: DVLMTQSPLSLPVTLGQPASISCRSSQSIVHSNGNTYLEWYQQRPGQSPRLLIYKVSNRFSGVPDRFSGSGSGTDFTLKISRVEAEDVGVYYCFQGSHVPFTFGQGTKLEIKR
notes: also called hu301-17

Kd [3]: ~0.017 nM
Kd [4]: 16.2 to 19.5 nM
B3: Recombinant 301-17 IgG2a (antibody)
heavy: QVQLQQPGAELVKPGASVKMSCKASGYSFTSYWINWVKQRPGQGLEWIGDVHPGRGVSTYNAKFKSKATLTLDTSSSTAYMQLSSLTSEDSAVYYCSRSHGNTYWFFDVWGAGTTVTVSSAKTTAPSVYPLAPVCGDTTGSSVTLGCLVKGYFPEPVTLTWNSGSLSSGVHTFPAVLQSDLYTLSSSVTVTSSTWPSQSITCNVAHPASSTKVDKKIEPRGPTIKPCPPCKCPAPNLLGGPSVFIFPPKIKDVLMISLSPIVTCVVVDVSEDDPDVQISWFVNNVEVHTAQTQTHREDYNSTLRVVSALPIQHQDWMSGKEFKCKVNNKDLPAPIERTISKPKGSVRAPQVYVLPPPEEEMTKKQVTLTCMVTDFMPEDIYVEWTNNGKTELNYKNTEPVLDSDGSYFMYSKLRVEKKNWVERNSYSCSVVHEGLHNHHTTKSFSRTPGK
light: DVLMTQTPLSLPVSLGDQASISCRSSQSIVHSNGNTYLEWYLQKPGQSPKLLIYKVSNRFSGVPDRFSGSGSGTDFTLKISRVEAEDLGVYYCFQGSHVPFTFGSGTKLEIKRADAAPTVSIFPPSSEQLTSGGASVVCFLNNFYPKDINVKWKIDGSERQNGVLNSWTDQDSKDSTYSMSSTLTLTKDEYERHNSYTCEATHKTSTSPIVKSFNRNEC
